Results taken from patent US20190016816A1 (APTEVO RESEARCH AND DEVELOPMENT, published 2019).

How the values were obtained:
human 5T4 on cells [1] = target: T1, human 5T4 on cells (human, UniProt Q13641 32-420); test: cell-based or functional assay
T1 sequence: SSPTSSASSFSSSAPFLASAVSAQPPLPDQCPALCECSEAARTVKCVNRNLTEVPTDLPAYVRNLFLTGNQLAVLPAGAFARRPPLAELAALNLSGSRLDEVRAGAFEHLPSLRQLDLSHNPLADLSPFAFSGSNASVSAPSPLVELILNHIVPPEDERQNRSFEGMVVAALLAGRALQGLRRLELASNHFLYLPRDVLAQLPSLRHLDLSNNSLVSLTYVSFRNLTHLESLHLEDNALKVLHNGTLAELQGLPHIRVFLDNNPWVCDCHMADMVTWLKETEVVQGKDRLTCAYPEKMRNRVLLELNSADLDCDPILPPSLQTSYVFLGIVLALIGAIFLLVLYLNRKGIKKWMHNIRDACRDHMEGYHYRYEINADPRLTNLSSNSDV

human 5T4 on cells [2] = target: T1, human 5T4 on cells; test: flow cytometry, H1975 cells, PE goat anti-human Fc
Experimental: (§1) A 3-fold titration of ALG.APV-210 construct (ranging from 100 nM to 0.14 nM) was incubated with the human 5T4-expressing cell lines for 40 minutes in FACS buffer at 4° C., washed 3 times, and detected with PE-labeled, goat-anti-human Fc secondary antibody (Jackson ImmunoResearch). Binding of ALG.APV-210 was detected by flow cytometry. All samples were run in duplicates. Nonlinear regression analysis to determine EC₅₀ values was performed in GraphPad Prism 6® graphing and statistics software.

human 5T4 on cells [3] = target: T1, human 5T4 on cells; test: flow cytometry, MDA.MB-231 cells, PE goat anti-human Fc
Experimental: as §1

human 5T4 on cells [4] = target: T1, human 5T4 on cells; test: flow cytometry, CT26-hu5T4^int cells, streptavidin-PE, normalized MFI of 2 pooled experiments
Experimental: (§2) Prior to the FACS staining, all cell lines were characterized for their 5T4 expression levels using a receptor density kit (Quantum Simply Cellular, anti-human IgG, Bangs Laboratories, Inc). Adherent cell lines were cultured according to their supplier's instructions and were harvested from their cell culture flasks using Trypsin/EDTA, counted in R10 medium in a Burker chamber, and diluted in FACS buffer (PBS+0.5% BSA, 0.05% NaN₃) to a concentration of 4×10⁶ cells/mL. 50 μL (0.20×10⁶) of cell solution was added to a 96-well FACS staining plate (Falcon #351190). Cells were incubated for 20 min in 4° C. with 50 μL of the biotinylated ALG.APV-210 (2× final concentration). The antibodies were added in a serial dilution starting at 20 μg/mL titrating down in a 12 step ½ dilution down to 0.010 μg/mL. Following 2× washing with FACS buffer, cells were incubated for 30 min in 4° C. with 100 μL of a secondary antibody (streptavidin-PE, BD #554061, diluted 1/500). […] Cells were analysed for ALG.APV-210 binding using flow cytometry (FACSVerse) by gating on single cells. MFI values (secondary antibody only subtracted) from 1 out of 2 independent experiments, as well as normalized data and EC₅₀-values of pooled data from 2 experiments were determined and plotted using GraphPad Prism 7, non-linear regression log (agonist) vs. normalized response—variable slope.

human 5T4 on cells [5] = target: T1, human 5T4 on cells; test: flow cytometry, CT26 cells transfected with human 5T4 (low clone), biotinylated ALG.APV-210 + streptavidin-PE, 1 of 2 experiments
Experimental: as §2, with “μg/mL.” for “μg/mL. Following 2× washing with FACS buffer, cells were incubated for 30 min in 4° C. with 100 μL of a secondary antibody (streptavidin-PE, BD #554061, diluted 1/500).”
The binding (EC₅₀) of the biotinylated ALG.APV-210 to 5T4 when expressed on cells, either at endogenous levels on human tumor cells or on cells transfected to express 5T4 was assessed. […]

[6] = target: T2, cynomolgus CD137 on cells (cynomolgus macaque, UniProt A9YYE7 24-254); test: flow cytometry, percentage of CD8 T cells (gated from CD3-stimulated cynomolgus PBMC) bound by the biotinylated antibody, exp 1, n=3 donors
T2 construct: whole, on cells; also called CHO-K1/cynomolgus CD137 cell line; cynomolgus monkey CD137 on CD3-stimulated primary CD8 T cells
T2 sequence (A9YYE7 entry or part of it): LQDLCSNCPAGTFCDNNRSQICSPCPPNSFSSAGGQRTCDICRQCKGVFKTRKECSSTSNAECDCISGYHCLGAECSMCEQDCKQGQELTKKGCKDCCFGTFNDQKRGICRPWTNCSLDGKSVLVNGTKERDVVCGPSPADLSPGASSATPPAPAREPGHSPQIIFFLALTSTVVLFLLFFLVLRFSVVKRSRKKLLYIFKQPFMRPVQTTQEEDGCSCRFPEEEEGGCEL
Experimental: Following 48 h of incubation with or without CD3, human and cynomolgus PBMC were harvested, pooled, recounted and diluted in FACS buffer (PBS+0.5% BSA, 0.05% NaN₃) to a concentration of 5×10⁶ cells/mL. 50 μL (0.25×10⁶ cells) of cell solution was added to a 96-well FACS staining plate (Falcon #351190). Following 10 min of Fc-blocking in RT using Beriglobin (hIgG, 200 μg/mL), cells were washed in FACS buffer and then incubated for 1 h in 4° C. with 100 μL of the biotinylated ALG.APV-210 or negative control. The antibodies were added in a serial dilution starting either at 5 μg/mL titrating down in a 12 step ⅓ dilution down to […] (exp 1) or 1 μg/mL titrating down in a 12 step ½ dilution down to 0.0005 μg/mL (exp 2). […] Cells were analysed for ALG.APV-210 binding using flow cytometry by gating on viable, single cells expressing CD3 and CD8. MFI values (FMO subtracted) from 2 independent experiments as well as normalized pooled data from 2 experiments and EC₅₀-values were determined and plotted using GraphPad Prism 7, non-linear regression log (agonist) vs. normalized response—variable slope, n=6 donors/group.

B1: ALG.APV-210 (bispecific antibody)
chain: EVQLLESGGGLVQPGGSLRLSCAASGFTFSHGSMYWVRQAPGKGLEWVSSISSGSGSTYYADSVKGRFTISHDNSKNTLYLQMNSLRAEDTAVYYCARSSYYGSYYSIDYWGQGTLVTVSSGGGGSGGGGSGGGGSGGGGSDIQMTQSPSSLSASVGDRVTITCRASQSISSYLNWYQQKPGKAPKLLIYAASSLQSGVPSRFSGSGSGTDFTLTISSLQPEDFATYYCQQYYDNLPTFGQGTKLEIKEPKSSDKTHTCPPCPAPEAAGAPSVFLFPPKPKDTLMISRTPEVTCVVVDVSHEDPEVKFNWYVDGVEVHNAKTKPREEQYNSTYRVVSVLTVLHQDWLNGKEYKCAVSNKALPAPIEKTISKAKGQPREPQVYTLPPSRDELTKNQVSLTCLVKGFYPSDIAVEWESNGQPENNYKTTPPVLDSDGSFFLYSKLTVDKSRWQQGNVFSCSVMHEALHNHYTQKSLSLSPGSGGGGSGGGGSGGGGSPSEVQLLESGGGLVQPGGSLRLSCAASGFTFSSYAMSWVRQAPGKCLEWVSAISGSGGSTYYADSVKGRFTISRDNSKNTLYLQMNSLRAEDTAVYYCARYYGGYYSAWMDYWGQGTLVTVSSGGGGSGGGGSGGGGSGGGGSDIQMTQSPSSLSASVGDRVTITCRASQSISSFLNWYQQKPGKAPKLLIYAASSLQSGVPSRFSGSGSGTDFTLTISSLQPEDSATYYCQQTYGYLHTFGCGTKLEIKR
notes: Optimized ADAPTIR scFv-Fc-scFv homodimer with stabilizing disulfide in the 1210 scFv; also called 5T4-CD137 bispecific antibody
Human 5T4 on cells [1]
  EC50 (nM), IFNγ release of human CD8+ T cells with HCT116 cells: 0.17 nM
Human 5T4 on cells [2]
  EC50: 20 nM
Human 5T4 on cells [3]
  EC50: 21 nM

B2: biotinylated ALG.APV-210 (bispecific antibody)
chain: B1 chain
notes: also called ALG.APV-210 (biotinylated for FACS detection)
Human 5T4 on cells [4]
  EC50: 12 nM
Human 5T4 on cells [5]
  EC50 (read off the curve): ~10 nM
[6]
  EC50 (read off the curve): ~0.02 nM
